Substrate: O=c1cc(C(F)(F)F)c2ccc(OCc3ccccc3)cc2o1
Assay: purified protein
Type: biochemical, Homo sapiens
Details: heme

B1: CYP3A7mut (Homo sapiens; C77G/K244E/K421A/K422A/K424A/R69G) (protein)
chain: YLYGTRTHGLFKKLGIPGPTPLPFLGNALSFRKGYWTFDMECYKKYGKVWGIYDGQQPMLAITDPDMIKTVLVKECYSVFTNRRPFGPVGFMKNAISIAEDEEWKRIRSLLSPTFTSGKLKEMVPIIAQYGDVLVRNLRREAETGKPVTLKHVFGAYSMDVITSTSFGVSIDSLNNPQDPFVENTKKLLRFNPLDPFVLSIKVFPFLTPILEALNITVFPREVISFLTKSVKQIKEGRLKETQKHRVDFLQLMIDSQNSKDSETHKALSDLELMAQSIIFIFAGYETTSSVLSFIIYELATHPDVQQKVQKEIDTVLPNKAPPTYDTVLQLEYLDMVVNETLRLFPVAMRLERVCKKDVEINGMFIPKGVVVMIPSYVLHHDPKYWTEPEKFLPERFSAANADNIDPYIYTPFGSGPRNCIGMRFALVNMKLALVRVLQNFSFKPCKETQIPLKLRFGGLLLTEKPIVLKAESRDETVSGA
notes: Δ3-22 (lacking the membrane tether, residues 3-22), C-terminal 4-histidine tag
Km: 11 ± 1 µM | kcat: 0.000567 ± 8.33e-05 s⁻¹ | kcat/Km: 51.7 M⁻¹ s⁻¹

— PMC8198134, “Structural Basis for the Diminished Ligand Binding and Catalytic Ability of Human Fetal-Specific CYP3A7” (International Journal of Molecular Sciences, 2021)
